Results reported in FireProtDB (doi:10.1016/j.jmb.2011.02.053).

Conditions: pH 7, Fluorescence, transition: 2, reversible: yes, whole UniProt chain shown; for denaturant midpoint (higher = more stable) / unfolding free energy: 25 °C, Urea
[1] = Borreliella burgdorferi, Sodium phosphate 5mM
[2] = Aspergillus oryzae (strain ATCC 42149 / RIB 40), MOPS 30mM

B1: Variable large protein wild type, O06878 (protein)
chain: MKKISSAILLTTFFVFINCKSQVADKDDPTNKFYQSVIQLGNGFLDVFTSFGGLVAEAFGFKSDPKKSDVKTYFTTVAAKLEKTKTDLNSLPKEKSDISSTTGKPDSTGSVGTAVEGAIKEVSELLDKLVKAVKTAEGASSGTAAIGEVVADADAAKVADKASVKGIAKGIKEIVEAAGGSEKLKAVAAAKGENNKGAGKLFGKAGAAAHGDSEAASKAAGAVSAVSGEQILSAIVTAADAAEQDGKKPEEAKNPIAAAIGDKDGGAEFGQDEMKKDDQIAAAIALRGMAKDGKFAVKDGEKEKAEGAIKGAAESAVRKVLGAITGLIGDAVSSGLRKVGDSVKAASKETPPALNK
[1]
  denaturant midpoint (higher = more stable): 1.19 M
  unfolding free energy: 4.6 kcal/mol

B2: Guanyl-specific ribonuclease T1 wild type, P00651 (protein)
chain: MMYSKLLTLTTLLLPTALALPSLVERACDYTCGSNCYSSSDVSTAQAAGYQLHEDGETVGSNSYPHKYNNYEGFDFSVSSPYYEWPILSSGDVYSGGSPGADRVVFNENNQLAGVITHTGASGNNFVECT
[2]
  denaturant midpoint (higher = more stable): 5.3 M
  unfolding free energy: 6.4 kcal/mol

B3: Guanyl-specific ribonuclease Sa wild type, P05798 (protein)
chain: DVSGTVCLSALPPEATDTLNLIASDGPFPYSQDGVVFQNRESVLPTQSYGYYHEYTVITPGARTRGTRRIITGEATQEDYYTGDHYATFSLIDQTC
Kitasatospora aureofaciens, Thermal, MOPS 30mM
  unfolding enthalpy (calorimetric): 92 kcal/mol
